Experimental data: patent publication US20080038735A1 (DOMANTIS, published 2008)
Numbering of substitutions follows the chain as printed.

B1: Vk(TAR1-5-19) (other)
VL: MASTDIQMTQSPSSLSASVGDRVTITCRASQSIDSYLHWYQQKPGKAPKLLIYSASELQSGVPSRFSGSGSGTDFTLTISSLQPEDFATYYCQQVVWRPFTFGQGTKVEIKRAA
notes: Vk domain antibody tested as free dAb; also called free dAb; monomeric domain antibody in solution
B2: Vk(E5) (other)
VL: B1 VL with I33V, D34S, H38N, S54L, E57R, V95N, V96W, R98L, F100P
notes: also called Anti-beta-galactosidase Vk clone E5; 7t^3T.Vk(E5)

Assays:
[1] = biological target: T1, TNFa (UniProt P01375 77-233, biotinylated (sites not given)); experiment: ELISA: in vitro translated dAb captured on the plate, incubated with a concentration range of biotinylated TNFa, detected with streptavidin-HRP
T1 construct: also called biotinylated TNFa; bio-TNFa
Protocol: (§1) The ligation mixture was transformed to XL-10 gold cells (Stratagene) and cells were plated. […] The typical amplification cycle for this PCR is performed with platinum pfx DNA polymerase (invitrogen) and consists of: initial denaturation of 3 min at 95 C, followed by 25 cycles of 30 seconds at 95 C, 30 seconds at 60 C, and 2 minutes at 68 C; and a final extension at 68 C for 3 minutes. The PCR product is cleaned on a Qiagen spin column, eluted and the DNA concentration determined by OD 260/280. The cleaned PCR product is used for in vitro transcription/translation (IVT). A typical 50 μl IVT reaction consists of 500 ng of DNA, 2.0 λl methionine (5 mM), 1.5 μl oxidized glutathione (100 mM) (Sigma), 35 μl bacterial extract, e.g. EcoPro (Novagen), and 11 μl H₂O. The IVT reaction can be performed for 1 up to 4 hours at temperatures between 20 C and 37 C. After IVT, the reaction is diluted 1 in 10 in PBS+0.2% tween-20. Fifty μl are added to an ELISA plate, that has been coated with anti-HA (3F10, Roche) (1 μg/ml in PBS), and incubated for 1 hour at room temperature. After washing, a concentration range (0-500 nM) of biotinylated antigen, i.e. TNFa, is added and incubated on the plate for 1 hour. Again, plate is washed and streptavidin conjugated to horse radish peroxidase (Streptavidin-HRP, Amersham) at a dilution of 1:3500 is added and incubated on the plate for 30 minutes.

[2] = biological target: T1, TNFa; experiment: not stated (told as a known affinity); higher affinity dAb, known affinity
[3] = biological target: T1, TNFa; experiment: ELISA: in vitro translated E5 construct captured on the plate, incubated with a concentration range of biotinylated TNFa, streptavidin-HRP; the sheet does not say whether E5 is free or fused to Tus
Protocol: as §1

T1 sequence (P01375 77-233 limits assumed): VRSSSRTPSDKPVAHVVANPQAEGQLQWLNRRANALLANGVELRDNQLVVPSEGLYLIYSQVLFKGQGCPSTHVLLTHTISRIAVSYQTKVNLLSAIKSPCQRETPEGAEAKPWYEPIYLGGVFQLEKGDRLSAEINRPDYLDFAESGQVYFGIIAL

Binder | EC50 (read off the curve) [1] [nM] | Kd [2] [nM] | binding result [3]
B1 | ~7 | 50 | –
B2 | – | – | no binding (tested: 1000 nM)
